Data from US20130143238A1 (BAXTER HEALTHCARE S A, published 2013).

B1: recombinant anti-CD34 antibody transiently expressed in HEK293T cells (co-transfection of pCMV-9C5lc and pCMV-9C5hc) (antibody, V domains shown)
VH: EVQLQQSGPELVKPGASVKISCKASGYSFIGYFMNWVMQSHGRSLEWIGRINPYNGYTFYNQKFKGKATLTVDKSSSTAHMELRSLASEDSAVYYCARHFRYDGVFYYAMDYWGQGTSVTVSS
VL: QLVLTQSSSASFSLGASAKLTCTLSSQHSTFTIEWYQQQPLKPPKYVMDLKKDGSHSTGDGVPDRFSGSSSGADRYLSISNIQPEDEATYICGVGDTIKEQFVYVFGGGTKVTVLG
notes: Tested as conditioned medium and as purified antibody, captured on plates coated with anti-mouse IgG; also called anti-CD34 9C5 antibody; transiently expressed recombinant anti-CD34 antibody
B2: hybridoma-derived anti-CD34 antibody secreted by the mouse hybridoma cell line 9C5/9069 (antibody, V domains shown)
VH: B1 VH
VL: B1 VL
notes: also called hybridoma supernatant

How the values were obtained:
[1] = molecular target: T1, human cluster designation 34 (CD34) antigen on the surface of TF-1 cells (human, UniProt P28906 32-385); assay: cell capture assay, conditioned medium of HEK293T cells, TF-1 cells, luminescence
T1 construct: whole, on cells; native on TF-1 cells; also called CD34 membrane-protein; CD34-receptor
T1 sequence (looked up): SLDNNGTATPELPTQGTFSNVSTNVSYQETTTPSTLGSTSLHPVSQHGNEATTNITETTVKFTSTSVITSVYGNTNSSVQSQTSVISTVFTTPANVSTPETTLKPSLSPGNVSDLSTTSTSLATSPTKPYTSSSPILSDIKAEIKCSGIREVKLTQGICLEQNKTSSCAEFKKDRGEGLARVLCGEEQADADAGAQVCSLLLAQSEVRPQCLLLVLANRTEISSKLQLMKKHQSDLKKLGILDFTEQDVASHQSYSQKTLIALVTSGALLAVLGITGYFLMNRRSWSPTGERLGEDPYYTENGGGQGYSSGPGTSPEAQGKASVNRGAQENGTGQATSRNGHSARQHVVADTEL
Experimental: (§1) 96-well microplates (Maxisorp, Nalge Nunc) were coated with polyclonal anti-mouse IgG antibody developed in goats (Jackson Immuno Research, Suffolk, UK) or in sheep (Baxter Oncology, Halle, Germany). After washing with PBS, either conditioned medium containing the anti-CD34 antibody was added and incubated overnight at 4° C. or purified antibody was diluted in DMEM medium (Invitrogen/Gibco, Lofer, Austria) supplemented with 10% FCS (PAA Laboratories, Pasching, Austria) and 1% penicillin/streptomycin (Invitrogen/Gibco) prior to incubation. Subsequently, plates were washed with PBS and TF-1 cells (ATCC CRL-2003) were added at a cell density of 1×10⁵ cells/mL. TF-1 cells were cultivated in RPMI medium (Invitrogen/Gibco). The bound anti-CD34 antibody captures the TF-1 cells by binding to the CD34 present on the surface of the cells. After washing steps to remove the unbound cells, the Cell Titer-Glo reagent from the CellTiter-Glo Luminescent Cell Viability Assay Kit (Promega, Mannheim, Germany) was added. This reagent gives a luminescence signal proportional to the number of viable cells based on an ATP-dependent luciferase reaction (FIG. 3).
The expression of mouse IgG was first verified by the Easy Titer Mouse IgG Assay (Pierce) according to the manufacturer's instructions. To test the functionality of the antibodies the supernatants were tested in the cell capture assay. […]

[2] = molecular target: T1, human cluster designation 34 (CD34) …; assay: cell capture assay, dilution series of purified antibody, TF-1 cells
Experimental: as §1
Furthermore, in a large scale expression experiment 23 triple flasks (Nunclon Surface, Nalge Nunc) and one cell factory (Nalge Nunc) were co-transfected and incubated for three weeks. […]

Binder | binding result [1] | binding result [2]
B1 | binds | 
B2 |  | binds
